The test system of the data set is MBP-(ZF)x6 (designed chimera), Q01844-5+P47974+O95218+O95218+P52756+P47974. Kind of data set: BLI. The conditions noted are these: ITC: 50 mM Tris pH 7.5, 150 mM NaCl, 1 mM DTT, 0.1 mM ZnCl2, 25 °C, BLI: 50 mM Tris pH 7.5, 150 mM NaCl, 0.1% BSA, 0.02% Tween, 30 °C.
Sequence of MBP-(ZF)x6 (designed chimera), Q01844-5+P47974+O95218+O95218+P52756+P47974 (P52756 whole entry, looked up, change not shown, chain 1 of 4): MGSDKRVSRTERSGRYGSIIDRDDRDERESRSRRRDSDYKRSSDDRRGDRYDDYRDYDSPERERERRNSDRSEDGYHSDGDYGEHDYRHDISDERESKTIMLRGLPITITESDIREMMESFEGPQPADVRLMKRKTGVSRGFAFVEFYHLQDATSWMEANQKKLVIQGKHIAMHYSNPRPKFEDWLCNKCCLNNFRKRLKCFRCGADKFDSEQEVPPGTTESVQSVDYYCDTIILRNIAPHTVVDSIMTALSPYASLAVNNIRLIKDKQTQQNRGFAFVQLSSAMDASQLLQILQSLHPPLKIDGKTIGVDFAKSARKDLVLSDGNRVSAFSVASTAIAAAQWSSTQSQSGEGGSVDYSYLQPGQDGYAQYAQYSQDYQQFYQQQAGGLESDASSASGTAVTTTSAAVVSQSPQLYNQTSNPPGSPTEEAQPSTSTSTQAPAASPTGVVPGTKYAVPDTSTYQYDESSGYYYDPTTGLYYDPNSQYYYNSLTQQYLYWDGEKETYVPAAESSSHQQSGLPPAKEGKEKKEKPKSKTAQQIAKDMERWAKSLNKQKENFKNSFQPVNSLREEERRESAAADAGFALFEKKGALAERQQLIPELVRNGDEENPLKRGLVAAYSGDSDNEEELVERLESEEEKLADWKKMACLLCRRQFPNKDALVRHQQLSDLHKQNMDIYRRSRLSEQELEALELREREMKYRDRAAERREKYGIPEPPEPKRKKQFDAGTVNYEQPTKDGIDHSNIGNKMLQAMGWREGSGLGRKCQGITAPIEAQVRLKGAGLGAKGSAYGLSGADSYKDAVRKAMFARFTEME
Sequence of MBP-(ZF)x6 (designed chimera), Q01844-5+P47974+O95218+O95218+P52756+P47974 (P47974 whole entry, looked up, change not shown, chain 2 of 4): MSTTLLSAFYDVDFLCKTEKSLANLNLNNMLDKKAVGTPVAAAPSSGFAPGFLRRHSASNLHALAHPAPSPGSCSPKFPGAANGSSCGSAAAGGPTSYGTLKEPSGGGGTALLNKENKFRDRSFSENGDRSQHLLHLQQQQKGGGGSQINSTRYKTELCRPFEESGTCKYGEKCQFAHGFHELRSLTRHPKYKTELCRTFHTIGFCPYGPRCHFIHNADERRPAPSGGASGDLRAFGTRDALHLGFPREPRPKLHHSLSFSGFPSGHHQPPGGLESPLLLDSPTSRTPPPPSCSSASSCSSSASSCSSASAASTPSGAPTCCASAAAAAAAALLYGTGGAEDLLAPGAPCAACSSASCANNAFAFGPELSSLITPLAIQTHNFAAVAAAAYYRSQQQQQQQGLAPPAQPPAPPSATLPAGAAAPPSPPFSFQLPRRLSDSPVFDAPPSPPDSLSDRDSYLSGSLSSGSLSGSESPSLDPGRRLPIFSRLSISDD
Sequence of MBP-(ZF)x6 (designed chimera), Q01844-5+P47974+O95218+O95218+P52756+P47974 (O95218 whole entry, looked up, change not shown, chain 3 of 4): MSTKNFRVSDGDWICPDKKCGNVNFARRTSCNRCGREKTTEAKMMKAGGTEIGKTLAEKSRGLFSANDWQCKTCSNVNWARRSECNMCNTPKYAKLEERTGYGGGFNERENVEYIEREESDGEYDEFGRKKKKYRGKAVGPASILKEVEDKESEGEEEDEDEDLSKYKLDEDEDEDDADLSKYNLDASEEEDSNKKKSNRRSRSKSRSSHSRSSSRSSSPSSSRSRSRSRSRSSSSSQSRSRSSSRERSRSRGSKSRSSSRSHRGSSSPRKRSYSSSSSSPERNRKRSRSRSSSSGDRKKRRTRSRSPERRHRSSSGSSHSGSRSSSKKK
Sequence of MBP-(ZF)x6 (designed chimera), Q01844-5+P47974+O95218+O95218+P52756+P47974 (Q01844 whole entry, looked up, change not shown, chain 4 of 4): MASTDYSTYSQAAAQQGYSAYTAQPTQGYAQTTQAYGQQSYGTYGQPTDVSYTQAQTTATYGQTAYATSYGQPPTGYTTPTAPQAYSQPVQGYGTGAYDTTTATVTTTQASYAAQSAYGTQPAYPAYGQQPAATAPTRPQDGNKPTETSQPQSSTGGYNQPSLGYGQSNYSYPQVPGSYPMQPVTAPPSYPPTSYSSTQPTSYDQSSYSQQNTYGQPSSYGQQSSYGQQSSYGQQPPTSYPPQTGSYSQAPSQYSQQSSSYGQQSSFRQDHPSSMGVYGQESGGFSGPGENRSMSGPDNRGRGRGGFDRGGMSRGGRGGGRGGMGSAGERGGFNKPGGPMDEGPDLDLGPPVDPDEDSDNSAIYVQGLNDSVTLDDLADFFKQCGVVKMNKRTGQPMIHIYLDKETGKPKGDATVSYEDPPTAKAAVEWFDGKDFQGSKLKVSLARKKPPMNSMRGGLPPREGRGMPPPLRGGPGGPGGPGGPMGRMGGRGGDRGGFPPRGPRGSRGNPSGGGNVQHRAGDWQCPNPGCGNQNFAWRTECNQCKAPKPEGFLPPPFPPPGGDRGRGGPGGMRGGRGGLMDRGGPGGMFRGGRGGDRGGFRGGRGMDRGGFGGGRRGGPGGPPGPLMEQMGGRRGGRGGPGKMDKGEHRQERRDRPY

The Kd is the constant that tells how readily two partners part at equilibrium. A high value points to weaker binding. For “AAAUAUUGGUGGGUAUUGCCGGUAAA [PT (permuted target)]”, the Kd was determined as 0.223 µM. The result for “AAAGGUUAUUGGUGCCGGGUAUUAAA [(ZF)x6 target]” reads 0.024 µM.
